Experiment [1] has as its target T1, amyloid beta 1-42 oligomer (UniProt P05067 672-713).
T1 construct: domain: amyloid beta 1-42; Soluble oligomeric aggregate; also called Aβ-oligomers; oligomeric amyloid beta 1-42
Kind of experiment: Alphascreen proximity sandwich: 6E10-biotin on streptavidin donor beads, CBB-VNAR on anti-FLAG acceptor beads; the oligomer concentration is varied; Alphascreen bead sandwich with 6E10-biotin; oligomer in solution titrated; apparent EC50. How it is done:
(§1) The generic amyloid beta binding antibody 6E10-biotin was immobilized on streptavidin Alphascreen®donor beads, while FLAG-tagged CBB-VNAR was immobilized on anti-FLAG Alphascreen®acceptor beads. These beads were incubated with different concentrations of amyloid beta 1-42 derived antigens (oligomers, monomers, fibrils, all prepared as described in example 1). In this format, a specific signal is generated when donor/6E10 and acceptor/CBB-VNAR beads simultaneously bind to different epitopes on the same molecule. […] Plates were then read using a Perkinelmer Enspire® plate reader using the 384 well factory preset measuring protocol. […] Stable Crossbeta oligomers (Perkin Elmer Amyloid Oligomers AlphaLISA High-Specificity Detection Kit (AL334F)) were also detected using an ELISA sandwich immunoassay format where the CBB-VNAR was immobilized to Nunc amino immobilizer plates (2 μg/ml coating, 1 hr rT) to serve as oligomer capture molecule. After incubation of the CBB-VNAR coated wells with different amounts of stable oligomer for 1 hour, wells were washed and bound oligomer was detected using sequential incubation with 6E10-biotin and streptavidin-HRP as described in example 1.

In experiment [2] the target is T1, amyloid beta 1-42 oligomer. Description: intrinsic Trp fluorescence quenching; the varied concentration is that of the oligomer (ABO), with CBB-VNAR fixed at 0.5 uM. An excerpt:
Therefore, Trp emission is widely used to study proteins and their interaction with other proteins or small molecules. The invariable core structure of the VNAR as isolated from wobbegong sharks has two Trp residues (see sequence below, Trp indicated in black) of which one is buried inside the protein whereas the other is exposed to the solvent (see FIG. 5D). The CBB-VNAR has two additional Trp residues in the CDR regions (one in CDR1, one in CDR3). No Trp residues are present in the CDR regions of the 12Y2 control protein. Apart from the CDR sequences, this control 12Y2 protein has an amino acid sequence identical to that of CBB-VNAR. To evaluate whether the Trp residues of CBB-VNAR are involved in the binding of amyloid beta oligomer antigen, a fluorescence titration study was performed. For this experiment, 0.5 uM CBB-VNAR or 12Y2 control VNAR were titrated with known quantities of amyloid beta oligomer (ABO) in Phosphate Buffered Saline (PBS) buffer, pH 7.2. […] After each ABO addition, the sample was equilibrated until the Trp fluorescence intensity was stable, and Trp emission spectra were recorded between 320 and 450 nm using 280 nm excitation. […] Upon addition of ABO, the emission intensity of CBB-VNAR decreases in a dose-dependent and saturable fashion where the intensity decreases to about 70% of the intensity measured for the native protein (FIGS. 5A and C). […]

Experiment [3] deals with T1, amyloid beta 1-42 oligomer. Description: ELISA on immobilized oligomer (5 µg/ml), anti-FLAG-M2-HRP detection; ng/ml, as measured in the ELISA. The protocol: To probe the binding affinities of CBB-VNAR towards different amyloid beta species and aggregation states, ELISA assays were performed. As a comparator antibody, the well-characterized 6E10 antibody was used. The 6E10 antibody recognizes N-terminal amino acid residues 3-8 of amyloid beta (EFRHDS), an epitope that is present and available for antibody binding in amyloid beta 1-42 derived antigens regardless of the physical form or aggregation state (Crisostomo et al., 2015. Data Brief. 2015 Aug. 6; 4:650-8.; Frenzel et al., 2014. PLoS One. 2014 Mar. 3; 9(3):e89490). Amyloid beta aggregates were prepared by incubation of monomeric synthetic amyloid beta 1-42 monomer in either F-12 medium (for oligomers) or 10 mM HCl (for fibrils) essentially as described by Dahlgren et al. (2002. J Biol Chem. 2002 Aug. 30; 277(35):32046-53). Amyloid beta derived antigens in different forms (oligomer, monomer, fibril, all at 5 μg/ml) were immobilized to Nunc Amino Immobilizer plates and blocked with ethanolamine according to the manufacturer's instructions. After washing, plates were probed with different concentrations of either FLAG-tagged CBB-VNAR or biotinylated 6E10 antibody (in parallel and on the same plates) for 1 hour. Bound antibody was then detected using anti-FLAG-M2-HRP (for CBB-VNAR) or with streptavidin-HRP (for 6E10-biotin). […]

The target of experiment [4] is T1, amyloid beta 1-42 oligomer. Kind of experiment: intrinsic Trp fluorescence titration, 0.5 uM CBB-VNAR in PBS pH 7.2 with 0.5 mM EDTA, excitation 280 nm. An excerpt: The amino acid residue tryptophan (Trp or W) intrinsically fluoresces upon excitation in the range 280-295 nm. The emission intensity (i.e. quantum yield) and emission wavelength are sensitive towards the local environment of the Trp residue. The local environment can change, for example, when the Trp residue is involved in conformational changes or ligand binding. Therefore, Trp emission is widely used to study proteins and their interaction with other proteins or small molecules. […] To evaluate whether the Trp residues of CBB-VNAR are involved in the binding of amyloid beta oligomer antigen, a fluorescence titration study was performed. For this experiment, 0.5 uM CBB-VNAR or 12Y2 control VNAR were titrated with known quantities of amyloid beta oligomer (ABO) in Phosphate Buffered Saline (PBS) buffer, pH 7.2. […] After each ABO addition, the sample was equilibrated until the Trp fluorescence intensity was stable, and Trp emission spectra were recorded between 320 and 450 nm using 280 nm excitation. […] Upon addition of ABO, the emission intensity of CBB-VNAR decreases in a dose-dependent and saturable fashion where the intensity decreases to about 70% of the intensity measured for the native protein (FIGS. 5A and C). […]

The target in experiment [5] is T2, Stable Crossbeta oligomers (Perkin Elmer Amyloid Oligomers AlphaLISA High-Specificity Detection Kit (AL334F)) (UniProt P05067 672-713).
T2 construct: also called Aβ-oligomers
T2 sequence (P05067 672-713): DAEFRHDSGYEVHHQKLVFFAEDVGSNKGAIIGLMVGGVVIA
Kind of experiment: sandwich ELISA: CBB-VNAR coated at 2 µg/ml as capture, the stable oligomer concentration is varied, detection with 6E10-biotin and streptavidin-HRP; sandwich ELISA; CBB-VNAR coated 2 µg/ml as capture; stable Crossbeta oligomer titrated. How it is done: as §1

Results on one molecule are retold here after patent US20190292247A1 (DEGENRX B V, published 2019).

T1 sequence (P05067 672-713 limits assumed): as the sequence (P05067 672-713) above

B1: CBB-VNAR (FLAG-tagged) (VNAR)
VNAR: AWVDQTPRTATKETGESLTINCVLRDQNGWSRTGWYRTKLGSTNEQSISIGGRYVETVNKGSKSFSLRISDLRVEDSGTYKCQALLNPRREEFWFSRRYPVVKGAGTALTVKA
notes: Monomeric shark-type VNAR single domain (Mw 15 kDa); not shown: FLAG tag
Regarding B1, the EC50 in experiment [1] was 0.1 µg/mL; in experiment [3], 0.004 µg/mL; in experiment [5] it was 0.01 µg/mL. Besides, the “EC50 (read off the curve)” value in experiment [2] is approximately 8 µg/mL. In experiment [4], the “Trp emission intensity at saturation with oligomer, relative to the native protein” value was approximately 70%.
